Key:
[1] = biological target: T1, human FcγRIIb constitutively expressed on MDCK cells (human, UniProt P31994 43-310); assay: cell-based or functional assay
T1 sequence (looked up): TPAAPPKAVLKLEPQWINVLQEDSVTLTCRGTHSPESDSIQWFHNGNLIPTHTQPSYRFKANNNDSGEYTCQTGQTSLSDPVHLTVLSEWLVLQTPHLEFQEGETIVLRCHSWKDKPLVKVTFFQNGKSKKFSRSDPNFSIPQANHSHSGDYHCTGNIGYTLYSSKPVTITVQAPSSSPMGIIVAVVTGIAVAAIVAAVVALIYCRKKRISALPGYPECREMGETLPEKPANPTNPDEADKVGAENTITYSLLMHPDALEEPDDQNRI

[2] = biological target: T2, soluble mouse FcγRII, His-tagged (mouse, UniProt P08101 30-210, limits assumed); assay: SPR, mouse FcγRII captured via His-tag, antigen-antibody complex injected, pH 7.4, 25 C
T2 construct: Captured on the chip through an anti-His antibody
T2 sequence (looked up): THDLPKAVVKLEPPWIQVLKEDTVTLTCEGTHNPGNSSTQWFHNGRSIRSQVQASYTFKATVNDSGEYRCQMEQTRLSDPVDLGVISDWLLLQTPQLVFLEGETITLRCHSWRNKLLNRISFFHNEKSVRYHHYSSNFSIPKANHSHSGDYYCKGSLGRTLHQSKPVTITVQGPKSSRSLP
Procedure, shortened: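 Biacore T200; His-tagged soluble FcγRII captured on an anti-His antibody chip, then antibody–antigen complexes injected. Running buffer 20 mM ACES, 150 mM NaCl, 1.2 mM CaCl₂, 0.05% Tween 20, pH 7.4; regeneration with 10 mM glycine-HCl pH 1.5; all at 25° C.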

B1: M103205H795-P1545m/M103202L889-SK1 (antibody, human IgG1, kappa, name in EU numbering)
heavy: QVTLKESGPVLVKPTETLTLTCTVSGIDLSHDDISWVRQAPGKGLEWVGIISYAGSTYYASWAKGRLTISKDTSKNQVVLTMTNMDPVDTATYYCARGVPAYSHGGDLWGQGTLVTVSSASTKGPSVFPLAPSSKSTSGGTAALGCLVKDYFPEPVTVSWNSGALTSGVHTFPAVLQSSGLYSLSSVVTVPSSSLGTQTYICNVNHKPSNTKVDKKVEPKSCDKTHTCPPCPAPELLGGPSVFLFPPKPKDTLMISRTPEVTCVVVDVSHEDPEVKFNWYVDGVEVHNAKTKPREEQYNSTYRVVSVLTVLHRDWLNGKEYKCKVSNKALPAPIEKTISKAKGQPREPQVYTLPPSREEMTKNQVSLTCLVKGFYPSDIAVEWESNGQPENNYKTTPPVLDSKGSFFLYSKLTVKKSRWQQGNVFSCSVMHEALHNHYTQKSLSLSP
light: DIVMTQSPATLSLSPGERATLSCTSSQSVYHANWLSWFQQKPGQPPKLLIYWASTLAYGVPSRFSGSGSGTDFTLTISSLQPEDAATYYCAGGYGGGRYAFGQGTKVEIKRTVAAPSVFIFPPSDEQLKSGTASVVCLLNNFYPREAKVQWKVDNALQSGNSQESVTEQDSKDSTYSLSSTLTLSKADYEKHKVYACEVTHQGLSSPVTKSFNRGEC
notes: copies: 2 + 2
celluar uptake (labelled human latent myostatin taken up as antigen-antibody complex) [1]: 7.73 relative to SG1 = 1.00 | biacore IC binding (relative, SG1 = 1.00) [2]: 1.8 relative to SG1

B2: M103205H795-P1548m/M103202L889-SK1 (antibody, human IgG1, kappa, name in EU numbering)
heavy: QVTLKESGPVLVKPTETLTLTCTVSGIDLSHDDISWVRQAPGKGLEWVGIISYAGSTYYASWAKGRLTISKDTSKNQVVLTMTNMDPVDTATYYCARGVPAYSHGGDLWGQGTLVTVSSASTKGPSVFPLAPSSKSTSGGTAALGCLVKDYFPEPVTVSWNSGALTSGVHTFPAVLQSSGLYSLSSVVTVPSSSLGTQTYICNVNHKPSNTKVDKKVEPKSCDKTHTCPPCPAPELLGGPSVFLFPPKPKDTLMISRTPEVTCVVVDVSHEDPEVKFNWYVDGVEVHNAKTKPREEQYNSTYRVVSVLTVLHRDWLNGKEYKCKVSNKALPAPIEKTISKAKGQPREPQVYTLPPSREEMTKNQVSLTCLVKGFYPSDIAVEWESNRQPENNYKTTPPVLDSRGSFFLYSKLTVDKSRWQQGNVFSCSVMHEALHNHYTQKSLSLSP
light: DIVMTQSPATLSLSPGERATLSCTSSQSVYHANWLSWFQQKPGQPPKLLIYWASTLAYGVPSRFSGSGSGTDFTLTISSLQPEDAATYYCAGGYGGGRYAFGQGTKVEIKRTVAAPSVFIFPPSDEQLKSGTASVVCLLNNFYPREAKVQWKVDNALQSGNSQESVTEQDSKDSTYSLSSTLTLSKADYEKHKVYACEVTHQGLSSPVTKSFNRGEC
notes: copies: 2 + 2
celluar uptake (labelled human latent myostatin taken up as antigen-antibody complex) [1]: 2.3 relative to SG1 = 1.00 | biacore IC binding (relative, SG1 = 1.00) [2]: 1.37 relative to SG1

B3: M103205H795-P1546m/M103202L889-SK1 (antibody, human IgG1, kappa, name in EU numbering)
heavy: QVTLKESGPVLVKPTETLTLTCTVSGIDLSHDDISWVRQAPGKGLEWVGIISYAGSTYYASWAKGRLTISKDTSKNQVVLTMTNMDPVDTATYYCARGVPAYSHGGDLWGQGTLVTVSSASTKGPSVFPLAPSSKSTSGGTAALGCLVKDYFPEPVTVSWNSGALTSGVHTFPAVLQSSGLYSLSSVVTVPSSSLGTQTYICNVNHKPSNTKVDKKVEPKSCDKTHTCPPCPAPELLGGPSVFLFPPKPKDTLMISRTPEVTCVVVDVSHEDPEVKFNWYVDGVEVHNAKTKPREEQYNSTYRVVSVLTVLHRDWLNGKEYKCKVSNKALPAPIEKTISKAKGQPREPQVYTLPPSREEMTKNQVSLTCLVKGFYPSDIAVEWESNGQPENNYKTTPPVLDSDRSFFLYSKLTVKKSRWQQGNVFSCSVMHEALHNHYTQKSLSLSP
light: DIVMTQSPATLSLSPGERATLSCTSSQSVYHANWLSWFQQKPGQPPKLLIYWASTLAYGVPSRFSGSGSGTDFTLTISSLQPEDAATYYCAGGYGGGRYAFGQGTKVEIKRTVAAPSVFIFPPSDEQLKSGTASVVCLLNNFYPREAKVQWKVDNALQSGNSQESVTEQDSKDSTYSLSSTLTLSKADYEKHKVYACEVTHQGLSSPVTKSFNRGEC
notes: copies: 2 + 2
celluar uptake (labelled human latent myostatin taken up as antigen-antibody complex) [1]: 5.1 relative to SG1 = 1.00 | biacore IC binding (relative, SG1 = 1.00) [2]: 1.41 relative to SG1

B4: M103205H795-P1549m/M103202L889-SK1 (antibody, human IgG1, kappa, name in EU numbering)
heavy: QVTLKESGPVLVKPTETLTLTCTVSGIDLSHDDISWVRQAPGKGLEWVGIISYAGSTYYASWAKGRLTISKDTSKNQVVLTMTNMDPVDTATYYCARGVPAYSHGGDLWGQGTLVTVSSASTKGPSVFPLAPSSKSTSGGTAALGCLVKDYFPEPVTVSWNSGALTSGVHTFPAVLQSSGLYSLSSVVTVPSSSLGTQTYICNVNHKPSNTKVDKKVEPKSCDKTHTCPPCPAPELLGGPSVFLFPPKPKDTLMISRTPEVTCVVVDVSHEDPEVKFNWYVDGVEVHNAKTKPREEQYNSTYRVVSVLTVLHRDWLNGKEYKCKVSNKALPAPIEKTISKAKGQPREPQVYTLPPSREEMTKNQVSLTCLVKGFYPSDIAVEWESNRQPENNYKTTPPVLDSDRSFFLYSKLTVDKSRWQQGNVFSCSVMHEALHNHYTQKSLSLSP
light: DIVMTQSPATLSLSPGERATLSCTSSQSVYHANWLSWFQQKPGQPPKLLIYWASTLAYGVPSRFSGSGSGTDFTLTISSLQPEDAATYYCAGGYGGGRYAFGQGTKVEIKRTVAAPSVFIFPPSDEQLKSGTASVVCLLNNFYPREAKVQWKVDNALQSGNSQESVTEQDSKDSTYSLSSTLTLSKADYEKHKVYACEVTHQGLSSPVTKSFNRGEC
notes: copies: 2 + 2
celluar uptake (labelled human latent myostatin taken up as antigen-antibody complex) [1]: 2.03 relative to SG1 = 1.00 | biacore IC binding (relative, SG1 = 1.00) [2]: 1.22 relative to SG1

B5: M103205H795-P1547m/M103202L889-SK1 (antibody, human IgG1, kappa, name in EU numbering)
heavy: QVTLKESGPVLVKPTETLTLTCTVSGIDLSHDDISWVRQAPGKGLEWVGIISYAGSTYYASWAKGRLTISKDTSKNQVVLTMTNMDPVDTATYYCARGVPAYSHGGDLWGQGTLVTVSSASTKGPSVFPLAPSSKSTSGGTAALGCLVKDYFPEPVTVSWNSGALTSGVHTFPAVLQSSGLYSLSSVVTVPSSSLGTQTYICNVNHKPSNTKVDKKVEPKSCDKTHTCPPCPAPELLGGPSVFLFPPKPKDTLMISRTPEVTCVVVDVSHEDPEVKFNWYVDGVEVHNAKTKPREEQYNSTYRVVSVLTVLHRDWLNGKEYKCKVSNKALPAPIEKTISKAKGQPREPQVYTLPPSREEMTKNQVSLTCLVKGFYPSDIAVEWESNGQPENNYKTTPPVLDSDKSFFLYSKLTVKKSRWQQGNVFSCSVMHEALHNHYTQKSLSLSP
light: DIVMTQSPATLSLSPGERATLSCTSSQSVYHANWLSWFQQKPGQPPKLLIYWASTLAYGVPSRFSGSGSGTDFTLTISSLQPEDAATYYCAGGYGGGRYAFGQGTKVEIKRTVAAPSVFIFPPSDEQLKSGTASVVCLLNNFYPREAKVQWKVDNALQSGNSQESVTEQDSKDSTYSLSSTLTLSKADYEKHKVYACEVTHQGLSSPVTKSFNRGEC
notes: copies: 2 + 2
celluar uptake (labelled human latent myostatin taken up as antigen-antibody complex) [1]: 4.85 relative to SG1 = 1.00 | biacore IC binding (relative, SG1 = 1.00) [2]: 1.33 relative to SG1

B6: M103205H795-P1551m/M103202L889-SK1 (antibody, human IgG1, kappa, name in EU numbering)
heavy: QVTLKESGPVLVKPTETLTLTCTVSGIDLSHDDISWVRQAPGKGLEWVGIISYAGSTYYASWAKGRLTISKDTSKNQVVLTMTNMDPVDTATYYCARGVPAYSHGGDLWGQGTLVTVSSASTKGPSVFPLAPSSKSTSGGTAALGCLVKDYFPEPVTVSWNSGALTSGVHTFPAVLQSSGLYSLSSVVTVPSSSLGTQTYICNVNHKPSNTKVDKKVEPKSCDKTHTCPPCPAPELLGGPSVFLFPPKPKDTLMISRTPEVTCVVVDVSHEDPEVKFNWYVDGVEVHNAKTKPREEQYNSTYRVVSVLTVLHRDWLNGKEYKCKVSNKALPAPIEKTISKAKGQPREPQVYTLPPSREEMTKNQVSLTCLVKGFYPSDIAVEWESNGQPRNNYKTTPPVLDSDRSFFLYSKLTVDKSRWQQGNVFSCSVMHEALHNHYTQKSLSLSP
light: DIVMTQSPATLSLSPGERATLSCTSSQSVYHANWLSWFQQKPGQPPKLLIYWASTLAYGVPSRFSGSGSGTDFTLTISSLQPEDAATYYCAGGYGGGRYAFGQGTKVEIKRTVAAPSVFIFPPSDEQLKSGTASVVCLLNNFYPREAKVQWKVDNALQSGNSQESVTEQDSKDSTYSLSSTLTLSKADYEKHKVYACEVTHQGLSSPVTKSFNRGEC
notes: copies: 2 + 2
celluar uptake (labelled human latent myostatin taken up as antigen-antibody complex) [1]: 2.91 relative to SG1 = 1.00 | biacore IC binding (relative, SG1 = 1.00) [2]: 1.33 relative to SG1

B7: M103205H795-P1550m/M103202L889-SK1 (antibody, human IgG1, kappa, name in EU numbering)
heavy: QVTLKESGPVLVKPTETLTLTCTVSGIDLSHDDISWVRQAPGKGLEWVGIISYAGSTYYASWAKGRLTISKDTSKNQVVLTMTNMDPVDTATYYCARGVPAYSHGGDLWGQGTLVTVSSASTKGPSVFPLAPSSKSTSGGTAALGCLVKDYFPEPVTVSWNSGALTSGVHTFPAVLQSSGLYSLSSVVTVPSSSLGTQTYICNVNHKPSNTKVDKKVEPKSCDKTHTCPPCPAPELLGGPSVFLFPPKPKDTLMISRTPEVTCVVVDVSHEDPEVKFNWYVDGVEVHNAKTKPREEQYNSTYRVVSVLTVLHRDWLNGKEYKCKVSNKALPAPIEKTISKAKGQPREPQVYTLPPSREEMTKNQVSLTCLVKGFYPSDIAVEWESNGQPRNNYKTTPPVLDSRGSFFLYSKLTVDKSRWQQGNVFSCSVMHEALHNHYTQKSLSLSP
light: DIVMTQSPATLSLSPGERATLSCTSSQSVYHANWLSWFQQKPGQPPKLLIYWASTLAYGVPSRFSGSGSGTDFTLTISSLQPEDAATYYCAGGYGGGRYAFGQGTKVEIKRTVAAPSVFIFPPSDEQLKSGTASVVCLLNNFYPREAKVQWKVDNALQSGNSQESVTEQDSKDSTYSLSSTLTLSKADYEKHKVYACEVTHQGLSSPVTKSFNRGEC
notes: copies: 2 + 2
celluar uptake (labelled human latent myostatin taken up as antigen-antibody complex) [1]: 6.43 relative to SG1 = 1.00 | biacore IC binding (relative, SG1 = 1.00) [2]: 1.63 relative to SG1

— US20250076311A1 (Chugai, published 2025)
